These results are taken from patent US20100104555A1 (Scripps Research, published 2010).

Where only a bound is given, the exact number is not on record here.

One may read the EC50 as the concentration needed to bring the measured effect to its halfway point. The term IC50 denotes the concentration needed to halve the response being measured. Read a low IC50 as greater potency in that assay.

B14: maltose binding protein fused-large extracellular loop of CD81 (receptor)
chain: FVNKDQIAKDVKQFYDQALQQAVVDDDANNAKAVVKTFHETLDCCGSSTLTALTTSVLKNNLCPSGSNIISNLFKEDCHQKIDDLFSGK
notes: also called CD81-LEL; MBP-fused CD81-LEL

Experiment [1] deals with B14. Nature of the experiment: capture ELISA. In general terms: ELISA stands for enzyme-linked immunosorbent assay.
The target of experiment [2] is B14. The experiment can be described thus: capture ELISA, coated CD81-LEL captures Flag-tagged E2 mutant.
The target of experiment [3] is B14. Nature of the experiment: capture ELISA, coated CD81-LEL, 293T supernatant.
Experiment [4] deals with vaccinia-expressed E1E2 (isolate HCV-1) (hepatitis C virus genotype 1a, isolate …, UniProt P26664 192-383; P26664 384-746). Nature of the experiment: ELISA on lectin-captured E1E2; apparent affinity = half-maximal binding.
Experiment [5] has as its target T1, E1E2 of HCV isolate H77 (hepatitis C virus genotype 1a, isolate …, UniProt P27958 192-383; P27958 384-746). The experiment can be described thus: ELISA, mAb inhibits E1E2 (H77) binding to coated CD81-LEL.
Experiment [6] addresses T1, E1E2 of HCV isolate H77. Nature of the experiment: cell-based or functional assay.
Experiment [7] addresses T1, E1E2 of HCV isolate H77. Nature of the experiment: ELISA on lectin-captured E1E2; apparent affinity = half-maximal binding.
A further experiment deals with E2412-574 (hepatitis C virus isolate H77, UniProt P27958 412-574). The experiment can be described thus: capture ELISA, coated CD81-LEL, 293T supernatant.
The next experiment addresses E2412-589 (hepatitis C virus isolate H77, UniProt P27958 412-588). The experiment can be described thus: capture ELISA, coated CD81-LEL, 293T supernatant.

B1: E2412-645 (other)
chain: QLINTNGSWHINSTALNCNESLNTGWLAGLFYQHKFNSSGCPERLASCRRLTDFAQGWGPISYANGSGLDERPYCWHYPPRPCGIVPAKSVCGPVYCFTPSPVVVGTTDRSGAPTYSWGANDTDVFVLNNTRPPLGNWFGCTWMNSTGFTKVCGAPPCVIGGVGNNTLLCPTDCFRKHPEATYSRCGSGPWITPRCMVDYPYRLWHYPCTINYTIFKVRMYVGGVEHRLEAACNLEDYKDDDDK
As to B1, the binding result in experiment [1] is listed as “binds”.

B2: E2ΔN5N9 (other)
chain: QLINTNGSWHINSTALNCNESLNTGWLAGLFYQHKFNSSGCPERLASCGSSGCWHYPPRPCGIVPAKSVCGPVYCFTPSPVVVGTTDRSGAPTYSWGANDTDVFVLNNTRPPLGNWFGCTWMNSTGFTKVCGAPPCGSSGCPTDCFRKHPEATYSRCGSGPWITPRCMVDYPYRLWHYPCTINYTIFKVRMYVGGVEHRLEAACNLEDYKDDDDK
As for B2, the binding result in experiment [2] is reported as “binds”.

B3: E2ΔN9 (other)
chain: QLINTNGSWHINSTALNCNESLNTGWLAGLFYQHKFNSSGCPERLASCRRLTDFAQGWGPISYANGSGLDERPYCWHYPPRPCGIVPAKSVCGPVYCFTPSPVVVGTTDRSGAPTYSWGANDTDVFVLNNTRPPLGNWFGCTWMNSTGFTKVCGAPPCGSSGCPTDCFRKHPEATYSRCGSGPWITPRCMVDYPYRLWHYPCTINYTIFKVRMYVGGVEHRLEAACNLEDYKDDDDK
Consider B3, for which, in experiment [2], the binding result is listed as “binds”.

B4: E2492-645 (other)
chain: RPCGIVPAKSVCGPVYCFTPSPVVVGTTDRSGAPTYSWGANDTDVFVLNNTRPPLGNWFGCTWMNSTGFTKVCGAPPCVIGGVGNNTLLCPTDCFRKHPEATYSRCGSGPWITPRCMVDYPYRLWHYPCTINYTIFKVRMYVGGVEHRLEAACNLEDYKDDDDK
With B4, the binding result in experiment [3] is “no binding”.

B5: E2412-611 (other)
chain: QLINTNGSWHINSTALNCNESLNTGWLAGLFYQHKFNSSGCPERLASCRRLTDFAQGWGPISYANGSGLDERPYCWHYPPRPCGIVPAKSVCGPVYCFTPSPVVVGTTDRSGAPTYSWGANDTDVFVLNNTRPPLGNWFGCTWMNSTGFTKVCGAPPCVIGGVGNNTLLCPTDCFRKHPEATYSRCGSGPWITPRCMVDYLEDYKDDDDK
With B5, the binding result in experiment [3] is listed as “no binding”.

B6: MAb AR3B (antibody, V domains shown)
VH: LEQSGPEVKKPGSSVKVSCKDSGDTFNEPVTWVRQAPGQGLEWIGGIIPAFGVTKYAQKFQGRVIISADASTATAYLELSSLRSEDTAVYYCAKVGLRGIVMVGGLAMNWLDPWGQGTQVTVSS
VL: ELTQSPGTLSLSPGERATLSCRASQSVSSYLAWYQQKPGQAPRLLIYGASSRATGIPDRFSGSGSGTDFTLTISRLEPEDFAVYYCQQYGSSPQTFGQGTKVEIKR
notes: also called IgG1 AR3B
On to B6, for which the EC50 in [4] came out at 2 nM.

B7: E2412-661 (other)
chain: QLINTNGSWHINSTALNCNESLNTGWLAGLFYQHKFNSSGCPERLASCRRLTDFAQGWGPISYANGSGLDERPYCWHYPPRPCGIVPAKSVCGPVYCFTPSPVVVGTTDRSGAPTYSWGANDTDVFVLNNTRPPLGNWFGCTWMNSTGFTKVCGAPPCVIGGVGNNTLLCPTDCFRKHPEATYSRCGSGPWITPRCMVDYPYRLWHYPCTINYTIFKVRMYVGGVEHRLEAACNWTRGERCDLEDRDRSELEDYKDDDDK
With B7, the binding result in [1] is “binds”.

B8: MAb AR3D (antibody, V domains shown)
VH: LEQSGAEVKKPGSSVKVSCKASGDTFRSYVITWARQAPGQGLEWMGAIIPFFGTTNLAQKFQGRVTITADESTKTVYMDLSSLRSDDTAVYYCAKAGDLSVGGVLAGGVPHLRHFDPWGQGTLVTVSS
VL: ELTQSPGTLSLSPGERATLSCRAGQTVASNSLAWYQHKPGQAPRLLIYGASIRASGIPDRFSGSGSGTDFTLTISRLEPEDFAVYYCQQYGLSPSTFGQGTRLEIKR
notes: also called IgG1 AR3D
For B8, the EC50 in [4] was 2.4 nM.

B9: E2ΔTM (other)
chain: ETHVTGGNAGRTTAGLVGLLTPGAKQNIQLINTNGSWHINSTALNCNESLNTGWLAGLFYQHKFNSSGCPERLASCRRLTDFAQGWGPISYANGSGLDERPYCWHYPPRPCGIVPAKSVCGPVYCFTPSPVVVGTTDRSGAPTYSWGANDTDVFVLNNTRPPLGNWFGCTWMNSTGFTKVCGAPPCVIGGVGNNTLLCPTDCFRKHPEATYSRCGSGPWITPRCMVDYPYRLWHYPCTINYTIFKVRMYVGGVEHRLEAACNWTRGERCDLEDRDRSELSPLLLSTTQWQVLPCSFTTLPALSTGLIHLHQNIVDVQYLYGVGSSIASWAIKWELEDYKDDDDK
Turning to B9, the binding result in [1] is “binds”.

B10: MAb AR1A (antibody, V domains shown)
VH: LEQSGAEVKKPGSSVKVSCRASGSPYSSYTITWVRQAPGQGLEWMGGIILMTGKANYAQKFQGRVTITADRATATAYMEMSSLTSDDTAIYYCARDPYVYAGDDVRSLSRWGQGTPVIVSS
VL: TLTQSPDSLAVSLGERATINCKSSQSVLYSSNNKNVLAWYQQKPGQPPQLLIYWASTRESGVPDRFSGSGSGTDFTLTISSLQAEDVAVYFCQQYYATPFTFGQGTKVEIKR
notes: also called IgG1 AR1A
In the experiment with E1E2 of HCV isolate H77 [5], B10 returned an IC50 of 5.7 nM. In addition, the “Neutralizing activity (IC50), HCVpp” value in the experiment with E1E2 of HCV isolate H77 [6] is greater than 50 µg/mL. The values for the EC50 (in experiment [4]; in the experiment with E1E2 of HCV isolate H77 [7]) were 2.6 nM and 3.8 nM, respectively.

B11: MAb AR2A (antibody, V domains shown)
VH: LEQSGAEMKKPGASLKVSCKTSGYTFDDYGVTWVRQAPGQGLEWMGWISAYSGNTFYARKFQGRVTMTTDPSTRTAYMELRSLRSDDTAVYFCARDRGLAINGVVFPYFGLDVWGQGTTVTVSS
VL: ELTQSPVSLPVTPGEPASISCRSSQSLLHSNGNHYLDWYLQKPGQSPQLLMYLGSNRASGVPDRFSGSGSGTDFTLKISRVEAEDVGVYYCMQGLQTPWTFGQGTKVEIKR
notes: also called IgG1 AR2A
For B11, the “Neutralizing activity (IC50), HCVpp” value with E1E2 of HCV isolate H77 [6] is 1 µg/mL. The values for the EC50 (in experiment [4]; with E1E2 of HCV isolate H77 [7]) were 3.1 nM and 1.6 nM, respectively.

B12: E2ΔN5 (other)
chain: QLINTNGSWHINSTALNCNESLNTGWLAGLFYQHKFNSSGCPERLASCGSSGCWHYPPRPCGIVPAKSVCGPVYCFTPSPVVVGTTDRSGAPTYSWGANDTDVFVLNNTRPPLGNWFGCTWMNSTGFTKVCGAPPCVIGGVGNNTLLCPTDCFRKHPEATYSRCGSGPWITPRCMVDYPYRLWHYPCTINYTIFKVRMYVGGVEHRLEAACNLEDYKDDDDK
Consider B12, for which, in [2], the binding result is given as “binds”.

B13: E2456-645 (other)
chain: LASCRRLTDFAQGWGPISYANGSGLDERPYCWHYPPRPCGIVPAKSVCGPVYCFTPSPVVVGTTDRSGAPTYSWGANDTDVFVLNNTRPPLGNWFGCTWMNSTGFTKVCGAPPCVIGGVGNNTLLCPTDCFRKHPEATYSRCGSGPWITPRCMVDYPYRLWHYPCTINYTIFKVRMYVGGVEHRLEAACNLEDYKDDDDK
For the molecule B13, the binding result in [3] is reported as “no binding”.
With B14, the binding result in the experiment with E2412-574 and with E2412-589 was “no binding” in each case.

B15: MAb AR1B (antibody, V domains shown)
VH: LESGGGLVQPGGSLRLSCEASGYYFSSFAMSWVRQTPGKGLEWVSSIAGGTLGRTSYRDSVKGRFTISRDNSKNTVFLHMNNLRPEDTAVYYCAKDPLLFAGGPNWFDHWGQGTLVTVSS
VL: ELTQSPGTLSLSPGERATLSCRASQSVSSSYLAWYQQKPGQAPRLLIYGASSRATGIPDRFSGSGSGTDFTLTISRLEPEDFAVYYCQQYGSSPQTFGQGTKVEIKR
notes: also called IgG1 AR1B
For B15, the “Neutralizing activity (IC50), HCVpp” value in the experiment with E1E2 of HCV isolate H77 [6] is greater than 50 µg/mL. Further, the EC50 in experiment [4] amounted to 0.4 nM; with E1E2 of HCV isolate H77 [7] it was 0.6 nM.
